B1: tissue factor (TF), human, as expressed by cells (receptor)
chain: SGTTNTVAAYNLTWKSTNFKTILEWEPKPVNQVYTVQISTKSGDWKSKCFYTTDTECDLTDEIVKDVKQTYLARVFSYPAGNVESTGSAGEPLYENSPEFTPYLETNLGQPTIQSFEQVGTKVNVTVEDERTLVRRNNTFLSLRDVFGKDLIYTLYYWKSSSSGKKTAKTNTNEFLIDVDKGENYCFSVQAVIPSRTVNRKGTDSPVECMGQEKGEFREIFYIIGAVVFVVIILVIILAISLHKCRKAGVGQSWKENSPLNVS
notes: also called hTF; human TF

Key:
[1] = biological target: IFNAR1 as used in the microscale thermophoresis binding assay (Homo sapiens (Human)) (UniProt P17181); experiment: microscale thermophoresis binding assay
[2] = biological target: T1, IFNGR1, human, endogenous in podocytes (human, UniProt P15260 18-489); experiment: TF co-immunoprecipitation from human podocyte lysates, immunoblot
T1 construct: whole, on cells
T1 sequence (looked up): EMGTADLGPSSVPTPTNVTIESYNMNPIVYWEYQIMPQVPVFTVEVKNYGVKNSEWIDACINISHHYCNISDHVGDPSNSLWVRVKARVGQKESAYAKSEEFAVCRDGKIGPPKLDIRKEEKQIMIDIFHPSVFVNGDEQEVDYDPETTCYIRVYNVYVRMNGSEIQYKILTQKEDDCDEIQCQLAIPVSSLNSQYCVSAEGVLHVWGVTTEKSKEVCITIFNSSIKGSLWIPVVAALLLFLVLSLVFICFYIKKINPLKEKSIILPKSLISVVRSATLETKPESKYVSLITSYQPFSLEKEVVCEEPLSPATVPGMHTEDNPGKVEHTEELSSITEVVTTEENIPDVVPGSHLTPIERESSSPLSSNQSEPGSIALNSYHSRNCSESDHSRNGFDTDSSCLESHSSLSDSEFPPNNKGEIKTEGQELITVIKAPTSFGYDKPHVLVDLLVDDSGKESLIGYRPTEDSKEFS

Row | Molecule | Kd [1] [nM] | binding result [2]
1 | tissue factor (TF) as used in the microscale thermophoresis binding assay (from UniProt P13726 33-251) (receptor) | 1160 | 
2 | B1 |  | no binding

— EP4545090A1 (Universität Leipzig, dated 2025)
